Laboratory results published in the Human Domainome abundance scans (Beltran et al. 2025).
± gives the uncertainty stated by the source.

B1: Intersectin-1, residues 909 to 971; numbered along this chain, Q15811 (parent)
chain: QGEKVEGLQAQALYPWRAKKDNHLNFNKNDVITVLEQQDMWWFGEVQGQKGWFPKSYVKLISG

Variants of: B1
Assay: abundance fitness (aPCA) (normalised: wild type 0, dead -1); higher = more abundant; growth selection in yeast, the domain comes from the species named
Settings: Homo sapiens

In order of rising abundance fitness:
1. QGEKVEGLQAQALYPERAKKDNHLNFNKNDVITVLEQQDMWWFGEVQGQKGWFPKSYVKLISG [W16E]  -0.888 ± 0.44
2. QGEKVEGLQAQALYWWRAKKDNHLNFNKNDVITVLEQQDMWWFGEVQGQKGWFPKSYVKLISG [P15W]  -0.746 ± 0.23
3. QGEKVEGLQAQALYPGRAKKDNHLNFNKNDVITVLEQQDMWWFGEVQGQKGWFPKSYVKLISG [W16G]  -0.744 ± 0.12
4. QGEKVEGLQAQALYPPRAKKDNHLNFNKNDVITVLEQQDMWWFGEVQGQKGWFPKSYVKLISG [W16P]  -0.691 ± 0.27
5. QGEKVEGLQAQALYPTRAKKDNHLNFNKNDVITVLEQQDMWWFGEVQGQKGWFPKSYVKLISG [W16T]  -0.646 ± 0.15
6. QGEKVEGLQAQALYPKRAKKDNHLNFNKNDVITVLEQQDMWWFGEVQGQKGWFPKSYVKLISG [W16K]  -0.427 ± 0.18
7. QGEKVEGLQAQALYPQRAKKDNHLNFNKNDVITVLEQQDMWWFGEVQGQKGWFPKSYVKLISG [W16Q]  -0.396 ± 0.16
8. QGEKVEGLQAQALYPWKAKKDNHLNFNKNDVITVLEQQDMWWFGEVQGQKGWFPKSYVKLISG [R17K]  -0.359 ± 0.36
9. QGEKVEGLQAQALYPVRAKKDNHLNFNKNDVITVLEQQDMWWFGEVQGQKGWFPKSYVKLISG [W16V]  -0.357 ± 0.08
10. QGEKVEGLQAQALYLWRAKKDNHLNFNKNDVITVLEQQDMWWFGEVQGQKGWFPKSYVKLISG [P15L]  -0.338 ± 0.13
11. QGEKVEGLQAQALYPYRAKKDNHLNFNKNDVITVLEQQDMWWFGEVQGQKGWFPKSYVKLISG [W16Y]  -0.32 ± 0.29
12. QGEKVEGLQAQALYPWGAKKDNHLNFNKNDVITVLEQQDMWWFGEVQGQKGWFPKSYVKLISG [R17G]  -0.306 ± 0.094
13. QGEKVEGLQAQALYPWPAKKDNHLNFNKNDVITVLEQQDMWWFGEVQGQKGWFPKSYVKLISG [R17P]  -0.293 ± 0.25
14. QGEKVEGLQAQALYPMRAKKDNHLNFNKNDVITVLEQQDMWWFGEVQGQKGWFPKSYVKLISG [W16M]  -0.281 ± 0.26
15. QGEKVEGLQAQALYPWWAKKDNHLNFNKNDVITVLEQQDMWWFGEVQGQKGWFPKSYVKLISG [R17W]  -0.24 ± 0.25
16. QGEKVEGLQAQALSPWRAKKDNHLNFNKNDVITVLEQQDMWWFGEVQGQKGWFPKSYVKLISG [Y14S]  -0.233 ± 0.11
17. QGEKVEGLQAQALYFWRAKKDNHLNFNKNDVITVLEQQDMWWFGEVQGQKGWFPKSYVKLISG [P15F]  -0.224 ± 0.32
18. QGEKVEGLQAQALYPNRAKKDNHLNFNKNDVITVLEQQDMWWFGEVQGQKGWFPKSYVKLISG [W16N]  -0.199 ± 0.2
19. QGEKVEGLQAQALTPWRAKKDNHLNFNKNDVITVLEQQDMWWFGEVQGQKGWFPKSYVKLISG [Y14T]  -0.191 ± 0.14
20. QGEKVEGLQAQALYPWAAKKDNHLNFNKNDVITVLEQQDMWWFGEVQGQKGWFPKSYVKLISG [R17A]  -0.19 ± 0.09
21. QGEKVEGLQAQALYPWDAKKDNHLNFNKNDVITVLEQQDMWWFGEVQGQKGWFPKSYVKLISG [R17D]  -0.163 ± 0.23
22. QGEKVEGLQAQALYPCRAKKDNHLNFNKNDVITVLEQQDMWWFGEVQGQKGWFPKSYVKLISG [W16C]  -0.157 ± 0.17
23. QGEKVEGLQAQALYPWFAKKDNHLNFNKNDVITVLEQQDMWWFGEVQGQKGWFPKSYVKLISG [R17F]  -0.141 ± 0.27
24. QGEKVEGLQAQALYIWRAKKDNHLNFNKNDVITVLEQQDMWWFGEVQGQKGWFPKSYVKLISG [P15I]  -0.127 ± 0.2
25. QGEKVEGLQAQALYPRRAKKDNHLNFNKNDVITVLEQQDMWWFGEVQGQKGWFPKSYVKLISG [W16R]  -0.115 ± 0.084
26. QGEKVEGLQAQALYPWHAKKDNHLNFNKNDVITVLEQQDMWWFGEVQGQKGWFPKSYVKLISG [R17H]  -0.108 ± 0.28
27. QGEKVEGLQAQALYPWTAKKDNHLNFNKNDVITVLEQQDMWWFGEVQGQKGWFPKSYVKLISG [R17T]  -0.097 ± 0.18
28. QGEKVEGLQAQALYPFRAKKDNHLNFNKNDVITVLEQQDMWWFGEVQGQKGWFPKSYVKLISG [W16F]  -0.092 ± 0.21
29. QGEKVEGLQAQALYPWMAKKDNHLNFNKNDVITVLEQQDMWWFGEVQGQKGWFPKSYVKLISG [R17M]  -0.081 ± 0.23
30. QGEKVEGLQAQALYPWQAKKDNHLNFNKNDVITVLEQQDMWWFGEVQGQKGWFPKSYVKLISG [R17Q]  -0.066 ± 0.15
31. QGEKVEGLQAQALYTWRAKKDNHLNFNKNDVITVLEQQDMWWFGEVQGQKGWFPKSYVKLISG [P15T]  -0.059 ± 0.17
32. QGEKVEGLQAQALYPSRAKKDNHLNFNKNDVITVLEQQDMWWFGEVQGQKGWFPKSYVKLISG [W16S]  -0.053 ± 0.1
33. QGEKVEGLQAQALRPWRAKKDNHLNFNKNDVITVLEQQDMWWFGEVQGQKGWFPKSYVKLISG [Y14R]  -0.052 ± 0.084
34. QGEKVEGLQAQALYPHRAKKDNHLNFNKNDVITVLEQQDMWWFGEVQGQKGWFPKSYVKLISG [W16H]  -0.051 ± 0.26
35. QGEKVEGLQAQALYPWEAKKDNHLNFNKNDVITVLEQQDMWWFGEVQGQKGWFPKSYVKLISG [R17E]  -0.049 ± 0.18
36. QGEKVEGLQAQALYPLRAKKDNHLNFNKNDVITVLEQQDMWWFGEVQGQKGWFPKSYVKLISG [W16L]  -0.046 ± 0.089
37. QGEKVEGLQAQALYPWSAKKDNHLNFNKNDVITVLEQQDMWWFGEVQGQKGWFPKSYVKLISG [R17S]  -0.043 ± 0.11
38. QGEKVEGLQAQALYPWLAKKDNHLNFNKNDVITVLEQQDMWWFGEVQGQKGWFPKSYVKLISG [R17L]  -0.021 ± 0.11
39. QGEKVEGLQAQALVPWRAKKDNHLNFNKNDVITVLEQQDMWWFGEVQGQKGWFPKSYVKLISG [Y14V]  0.011 ± 0.086
40. QGEKVEGLQAQALYPWVAKKDNHLNFNKNDVITVLEQQDMWWFGEVQGQKGWFPKSYVKLISG [R17V]  0.061 ± 0.096
41. QGEKVEGLQAQALYMWRAKKDNHLNFNKNDVITVLEQQDMWWFGEVQGQKGWFPKSYVKLISG [P15M]  0.114 ± 0.21
42. QGEKVEGLQAQALYGWRAKKDNHLNFNKNDVITVLEQQDMWWFGEVQGQKGWFPKSYVKLISG [P15G]  0.115 ± 0.071
43. QGEKVEGLQAQALYPIRAKKDNHLNFNKNDVITVLEQQDMWWFGEVQGQKGWFPKSYVKLISG [W16I]  0.126 ± 0.2
